Measured values as given in paper PMC9908901, “Identification of a tomato UDP-arabinosyltransferase for airborne volatile reception” (Nature Communications, 2023).

Tests used:
Test in all cases: steady-state kinetics, HPLC-MS of glycoside product
Type in all cases: biochemical, Solanum lycopersicum
[1] = substrate: CC/C=C\CCO[C@@H]1O[C@H](CO)[C@@H](O)[C@H](O)[C@H]1O; conditions: UDP-arabinose fixed as donor, 50 mM potassium phosphate pH 7.5, 30 °C
From the text: (§1) steady-state kinetics, HPLC-MS of glycoside product on UGT91R1

[2] = substrate: O=c1ccn([C@@H]2O[C@H](COP(=O)(O)OP(=O)(O)O[C@H]3OC[C@@H](O)[C@H](O)[C@H]3O)[C@@H](O)[C@H]2O)c(=O)[nH]1; conditions: HexGlc fixed as acceptor, 50 mM potassium phosphate pH 7.5, 30 °C
From the text: as §1

[3] = substrate: O=c1ccn([C@@H]2O[C@H](COP(=O)(O)OP(=O)(O)O[C@H]3OC[C@H](O)[C@H](O)[C@H]3O)[C@@H](O)[C@H]2O)c(=O)[nH]1; conditions: HexGlc fixed as acceptor, 50 mM potassium phosphate pH 7.5, 30 °C
From the text: as §1

B1: UGT91R1 (Solanum lycopersicum) (protein)
chain: MAENGKKLHIAVFPWLAFGHMIPYLELSKLIAQKGHKISFISTPRNIDRLPKLPPNLTPFLNFVKLPMPHVEKLPENAEATIDLPYEQVKYLKLAQDALQESMSKFIEDSDIDFILFDFTSYWVPSIASKFNIPSGYFSIFIAAFLGFTGPVPGLNNDYEIRMTPEEYTVTPKWVPFETTVAFKLFEVSRIFEASMKGEEENIADIVRYYRSVENCDFLLVRSCSEFEPEWLKVVGDIHRKPVFPVGQLPTTPYEDDSTKIDAWREIKLWLDKQEKGKVIYVAFGSEAKPSQNELTELSLGLELSGLPFFWVLRIKRGESDDELIQLPEGFEERTKGRGIVCTSWAPQLKILSHDSVGGFLTHSGWSSVVEAIQFEKSLVLLTFLADQGINARLLEEKKMAYSIPRNDQDGSFTRDSVAESLNLVLVKEEGFIYREKIKEMKDLFCDKKRQNNYVENLLSFLQDYEKIKA
notes: full length, synthetic cDNA in pET15b, E. coli BL21(DE3), HisTrap purified
**Q.** What does the source list for B1?
**A.** Km [1]: 5.9 ± 0.5 µM; kcat [1]: 0.33 ± 0.009 s⁻¹; kcat/Km [1]: 57000 ± 5000 M⁻¹ s⁻¹; Km [2]: 603 ± 75 µM; kcat [2]: 1.8 ± 0.1 s⁻¹; kcat/Km [2]: 3000 ± 400 M⁻¹ s⁻¹; Km [3]: 38 ± 4 µM; kcat [3]: 1.9 ± 0.1 s⁻¹; kcat/Km [3]: 51000 ± 5000 M⁻¹ s⁻¹
